Laboratory results from US12116387B2, “Antimicrobial peptides” (priority 2021, dated 2024).
“Also recorded” adds a separate entry of the source.

Legend:
[1] = system: human red blood cells (hRBCs); test: Cytotoxicity / hemolysis against human red blood cells; format: cell-based; settings: hRBCs
Experimental: Once the mechanisms by which the peptide targeted bacterial cells was elucidawted, the effect of the pentapeptide motif insertion on cytotoxicity against mammalian cells was evaluated.

IL-12, TNFα, IL-6 = test: Cytokines in peritoneal fluid of infected mice (ELISA); format: in vivo, C57BL/6 mice; settings: tracked for 48 h; mast-MO 10 mg Kg^−1, mast-L 5 mg Kg^−1
Experimental: […] PBS and imipenem (10 mg Kg^−1) were used as negative and positive controls, respectively. Data were expressed as mean±standard deviation. Statistical analysis was performed using Bonferroni test. ***p<0.001 as significant compared to the control.
To test whether the FLPII motif within the mast-MO sequence led to increased immunomodulatory and chemotactic properties with respect to mast-L, ELISA experiments were performed using the peritoneal fluid collected from mice (FIG. 5a). C57BL/6 mice were infected with both Gram-negative and Gram-positive pathogens and administered either mast-L or mast-MO intraperitoneally. For mice infected with E. coli ATCC8739, we monitored the peritoneal cavity to detect and quantify the release and presence of several immune mediators (FIG. 4E). […] This effect was similar to the positive control group of mice treated with […] (TGA) (FIG. 4B). […] After 24 h, the leukocyte recruitment levels in mast-MO-treated mice dropped to ˜10^6, likely attributed to the resolution of the infection by the peptide (FIGS. 5B and 5C). […] We monitored, via ELISAs, the cytokine profiles present within the peritoneal cavity of mice infected with E. coli ATCC8739 and S. aureus ATCC29213 (FIGS. 4E and FIG. 4F, respectively) and treated with a single dose of peptide. […]

S. aureus ATCC29213 = test: Systemic sepsis infection mouse model, S. aureus ATCC29213; format: in vivo; settings: 5 mg Kg^−1 i.p.
Experimental: FIG. 5A-5I pertains to a study of the anti-infective activity of mast-MO against Gram-negative and Gram-positive pathogens in a lethal sepsis infection model. In FIG. 5A mice were infected with bacteria, treated with each peptide or antibiotic and monitored for 8 days. Survival and cell counts after 24 h, respectively, are shown for E. coli ATCC8739 (2×10^4 CFU/mL inoculum) FIG. 5B and FIG. 5C, S. aureus ATCC29213 (2×10^9 CFU/mL inoculum) FIG. 5D and FIG. 5E, E. coli 1812446 (KPC-positive) (2×10^4 CFU inoculum) FIG. 5F and FIG. 5G, and S. aureus (MRSA) ATCC33591 (2×10^9 CFU inoculum) FIG. 5H and FIG. 5I. Mice were treated intraperitoneally (i.p.) with 1, 5 and 10 mg Kg^−1 of mast-L, mast-MO or 10 mg Kg^−1 of the antibiotics gentamicin and imipenem. PBS was used as a control for the untreated group of mice. Treatments were administered 3 h post-infection. Data are expressed as the mean±standard deviation. Statistical analysis was performed using Bonferroni test. […], **p<0.01, ***p<0.001 compared to the untreated control.
Systemic bacterial infection mouse model. […] Animals were humanely killed 24 h after bacterial administration.

leukocytes = test: Leukocyte migration to the peritoneal cavity of mice infected with E. coli ATCC8739; format: in vivo, C57BL/6 mice; settings: mast-MO 10 mg Kg^−1, mast-L 5 mg Kg^−1
Experimental: To test whether the FLPII motif within the mast-MO sequence led to increased immunomodulatory and chemotactic properties with respect to mast-L, ELISA experiments were performed using the peritoneal fluid collected from mice (FIG. 5a). C57BL/6 mice were infected with both Gram-negative and Gram-positive pathogens and administered either mast-L or mast-MO intraperitoneally. For mice infected with E. coli ATCC8739, we monitored the peritoneal cavity to detect and quantify the release and presence of several immune mediators (FIG. 4E). […] This effect was similar to the positive control group of mice treated with […] (TGA) (FIG. 4B). […] We monitored, via ELISAs, the cytokine profiles present within the peritoneal cavity of mice infected with E. coli ATCC8739 and S. aureus ATCC29213 (FIGS. 4E and FIG. 4F, respectively) and treated with a single dose of peptide. […]
Isolation of leukocytes from the peritoneal cavity of mice. Leukocyte migration into the peritoneal cavity of uninfected C57BL/6 mice treated with 10 mg Kg^−1 of peptides was evaluated to assess the chemotactic activity of the peptides, as previously described (11). […] Leukocyte counts present in the in peritoneal cavity of mice infected with E. coli ATCC 8739 were quantified. […] The results are expressed as the number of cells per cavity (48).

[2] = system: murine fibroblasts (L929); test: Cytotoxicity against L929 fibroblasts (MTT); format: cell-based; settings: L929
Experimental: Mammalian cells toxicity assays. L929 mice fibroblasts (Rio de Janeiro Cell Bank) and SPCs were seeded in 96-well microtiter plates in a concentration of 1.0×10^5 cells per well, in DMEM medium, supplemented with different concentrations of tested peptides (1-600 μM). After 48 h incubation, a thiazolyl blue tetrazolium bromide (MTT) protocol was performed. Briefly, 60% of the medium was removed, and 10 μL of MTT (5 mg mL^−1) (Sigma, USA) solution was added to each well and the plate was incubated for 4 h, in 5% CO2, at 37° C. The blue formazan product generated was dissolved by the addition of 100 μL of 100% DMSO (Mallinckrodt, Germany) per well. Plates were then gently swirled for 5 min, at room temperature, to dissolve the precipitate. The absorbance was monitored at 575 nm using a microplate spectrophotometer (Bio-Tek, USA). Cytotoxicity was determined as a percentage of the maximum value after subtracting the background. The results were expressed as the percentage of each sample compared to the negative control (PBS buffer, pH 7.4) and cell culture was incubated in a lysis buffer (10 mM Tris, pH 7.4, 1 mM ethylenediamine tetraacetic acid (EDTA), and 0.1% Triton X-100).

[3] = system: E. coli and S. aureus strains; test: Systemic infection experiments, summary over all strains; settings: 10 mg Kg^−1
Experimental: To determine the anti-infective activity of mast-MO in a pre-clinical mouse model, the ability of the peptide to kill pathogenic and drug-resistant E. coli and S. aureus strains was tested in a systemic sepsis infection mouse model (FIG. 5). The minimal bacterial load resulting in a lethal dose (LD100) 24 h post-intraperitoneal injection was first determined. […] Mice were infected with the LD100 of bacteria and treated 3 h post-infection with either mast-L (1 and 5 mg Kg^−1) or mast-MO (1, 5 and 10 mg Kg^−1), which were also administered intraperitoneally.
Systemic bacterial infection mouse model. […] The experiment was performed by intraperitoneal (i.p.) injection of the tested peptides to groups of 10 C57BL/6 mice. Each mouse was injected with a 0.5 mL solution of freshly prepared of peptides in PBS. The doses of peptide administered per mouse were 0, 10, 30, 50, 70 and 90 mg Kg^−1 of body weight. Animals were directly inspected for adverse effects for 6 h, and mortality was monitored for 7 days thereafter. Differences between groups were analysed using the Fisher exact test (differences were considered to be statistically significant when the P value was <0.05). Briefly, E. coli ATCC8739 and E. coli 1812446 or S. aureus ATCC 29213 and S. aureus (MRSA) ATCC33591 were plated on tryptic soy agar plus 5% sheep blood (blood agar, Himedia, India) from a frozen stock. Following 24 h of incubation of the agar plate, three isolated colonies were transferred to 1 mL of BHI. The broth culture was incubated overnight (12-16 h) at 37° C. with shaking. […] Mice were challenged with either strain of E. coli ATCC8739 and E. coli 1812446 or S. aureus ATC29213 and S. aureus (MRSA) ATCC33591 in a final volume of 200 μL of PBS by intraperitoneal injection (i.p.). The day of challenge was designated as day 1 of the experiment. Three hours after bacterial injection, mice (n=5) were treated, intraperitoneally, with different concentrations of peptides (1, 5 or 10 mg Kg^−1), LL-37, gentamicin and 10 mg Kg^−1 of imipenem or PBS for 8 days. For bacterial load evaluation, 5 mice per group were used. […]

NLKALAALAKKIL [Mast-L]
Cytotoxic activity, Peptide Concentration [1]: 7 µmol/L | Pro-inflammatory cytokines IL-12, TNFα and IL-6 in the peritoneal cavity (IL-12, TNFα, IL-6): repressed | Survival (S. aureus ATCC29213): 80% | Leukocyte recruitment over the time period tested, in words (leukocytes): did not significantly induce leukocyte recruitment | Cytotoxic activity, Peptide Concentration [2]: 10 µmol/L | Toxicity when injected systemically in the infection model [3]: had to be euthanized; also recorded: led to toxicity
